# Laboratory results taken from article PMC3718800, “Structural and Functional Perturbation of Giardia lamblia Triosephosphate Isomerase by Modification of a Non-Catalytic, Non-Conserved Region” (PLoS ONE, 2013).
# Test system: O=C[C@H](O)COP(=O)(O)O
# Assay: Coupled alpha-glycerol-3-phosphate dehydrogenase assay following NADH decrease at 340 nm at 25°C in 100 mM triethanolamine/10 mM EDTA, pH 7.4, with 0.2 mM NADH and GAP varied from 0.3 to 3 mM, fitted to the Michaelis-Menten equation by non-linear regression.
# Assay type: biochemical
# Description: Glyceraldehyde 3-phosphate (GAP), buffers, salts and all the other analytical grade reagents were acquired from Sigma–Aldrich; α-glycerol-3-phosphate dehydrogenase (α-GDH) was from Roche, crystallization screen kits were obtained from Hampton Research. Restriction enzymes, DNA polymerase and T4 DNA ligase were purchased from New England BioLabs and Invitrogene. Oligonucleotide synthesis and DNA sequencing was performed at the Unidad de Biología Molecular, Instituto de Fisiología Celular, UNAM. Protein concentration was determined by the bicinchoninic acid method or by absorbance at 280 nm for pure GlTIM (ε280 = 26600 M^-1cm^-1). The TIM activity was determined at 25°C by a coupled assay, following the decrease in absorbance at 340 nm. The standard reaction mixture contained 100 mM triethanolamine/10 mM EDTA, pH 7.4 (TE buffer), 1 mM GAP, 0.2 mM NADH, and 0.9 units of α-GDH (20 μg/mL); the reaction was initiated by addition of 5 ng/mL of WT, C222V or C222M GlTIM, 10 ng/mL of C222N, 20 ng/mL of C222D or C222F, and 200 ng/mL of C222K. Kinetic, binding and stability data were analyzed by non-linear regression calculations with Origin software.
# Determination of Km and Vmax was performed by fitting initial velocity data at GAP concentrations ranging from 0.3 to 3 mM to the Michaelis-Menten equation (v = Vmax•S/Km+S) by non-linear regression calculations. The kcat was derived from Vmax by considering a molecular mass for the monomer of 27.7 kDa. The Ki for 2-phosphoglycolate (2-PG) was calculated by global fit of initial velocity curves (GAP from 0.3 to 3 mM) obtained at different fixed concentrations of the inhibitor. Prior to fitting collectively the data to the simple competitive inhibition equation (v = Vmax•S/Km(1+I/Ki)+S), individual data were plotted as double reciprocal plots to confirm competitive inhibition.
Substance,Km [µM],Vmax [µmol/min/mg],kcat [s⁻¹]
C222D (Giardia duodenalis; C222D),4880 ± 810,3720,3330
C222F (Giardia duodenalis; C222F),3900 ± 460,1660,1500
C222K (Giardia duodenalis; C222K),3100 ± 640,255,217
C222M (Giardia duodenalis; C222M),1850 ± 460,3100,2800
C222N (Giardia duodenalis; C222N),2790 ± 730,3650,3320
C222V (Giardia duodenalis; C222V),960 ± 120,9560,8670
